Target: T1, SIP2 D1 (Plasmodium falciparum, UniProt C6KSN9 177-235)
T1 sequence: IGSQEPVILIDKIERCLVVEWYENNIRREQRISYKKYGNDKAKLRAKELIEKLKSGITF
Assay: gcPBM; about 25 ug protein; PBS, 1% milk, 0.2 mg/ml BSA, salmon testes DNA, 0.03% Triton X-100
Conditions: tags: N-terminal GST (pGEX-4T-1), kept; label: surface-attached array probe

Row | Binder | binding signal
1 | GTGCAC_site9794 (dsDNA) DNA 1: AAAAATATATATTCAGTGCATATAACAAAAATTATA DNA 2: TATAATTTTTGTTATATGCACTGAATATATATTTTT | 8.79 ln median PBM intensity, better of two orientations
2 | GTGCAC_site10440 (dsDNA) DNA 1: TATTACACATATTATGTGCACATATATAATCAATAT DNA 2: ATATTGATTATATATGTGCACATAATATGTGTAATA | 8.5 ln median PBM intensity, better of two orientations
3 | GTGCAC_site10077 (dsDNA) DNA 1: TTCATTCAAATTAACGTGCACATTATTAGTAAAAAC DNA 2: GTTTTTACTAATAATGTGCACGTTAATTTGAATGAA | 10 ln median PBM intensity, better of two orientations
4 | GTGCAC_site10531 (dsDNA) DNA 1: AGTAATTATTTTAGAGTGCATAGTTTTTTAATAAAT DNA 2: ATTTATTAAAAAACTATGCACTCTAAAATAATTACT | 8.98 ln median PBM intensity, better of two orientations
5 | GTGCAC_site9663 (dsDNA) DNA 1: AAATAGTAAGAGATGGTGCGTTTCCTTTTTTTTTTT DNA 2: AAAAAAAAAAAGGAAACGCACCATCTCTTACTATTT | 9.3 ln median PBM intensity, better of two orientations
6 | GTGCAC_site9684 (dsDNA) DNA 1: TGTACGAGTCGTAGAGTGCAGTCTGGAGAAGAGTAC DNA 2: GTACTCTTCTCCAGACTGCACTCTACGACTCGTACA | 8.45 ln median PBM intensity, better of two orientations
7 | GTGCAC_site10774 (dsDNA) DNA 1: ACGTTAAAATATTGGGTGCTAACACAATAAAAATAA DNA 2: TTATTTTTATTGTGTTAGCACCCAATATTTTAACGT | 8.87 ln median PBM intensity, better of two orientations
8 | GTGCAC_site10227 (dsDNA) DNA 1: TATACATATTTACAAGTGCATAATATTTTACAAAAA DNA 2: TTTTTGTAAAATATTATGCACTTGTAAATATGTATA | 8.65 ln median PBM intensity, better of two orientations
9 | GTGCAC_site10455 (dsDNA) DNA 1: AATATTCAATATAAAGTGCATTATTGTGGACCTAAT DNA 2: ATTAGGTCCACAATAATGCACTTTATATTGAATATT | 9.41 ln median PBM intensity, better of two orientations
10 | GTGCAC_site10571 (dsDNA) DNA 1: GATTATTTCTAAAAAGTGCATATTTAAAAATCTCCT DNA 2: AGGAGATTTTTAAATATGCACTTTTTAGAAATAATC | 9.76 ln median PBM intensity, better of two orientations
11 | GTGCAC_site10182 (dsDNA) DNA 1: GTATGATGCATAAGAGTGCATAAGGATATTTCTTCA DNA 2: TGAAGAAATATCCTTATGCACTCTTATGCATCATAC | 9.94 ln median PBM intensity, better of two orientations
12 | GTGCAC_site9916 (dsDNA) DNA 1: TATTTCTTTTGGTTGGTGCATAAAATAATACAATAT DNA 2: ATATTGTATTATTTTATGCACCAACCAAAAGAAATA | 10.2 ln median PBM intensity, better of two orientations
13 | GTGCAC_site9739 (dsDNA) DNA 1: TTATAAATATTCACTGTGCACTGATGGAATATAAAT DNA 2: ATTTATATTCCATCAGTGCACAGTGAATATTTATAA | 9.91 ln median PBM intensity, better of two orientations
14 | GTGCAC_site10192 (dsDNA) DNA 1: ATATTATTATATATAGTGCATATTATTATTTTTATT DNA 2: AATAAAAATAATAATATGCACTATATATAATAATAT | 9.16 ln median PBM intensity, better of two orientations
15 | GTGCAC_site10446 (dsDNA) DNA 1: ATGTATCCAATAGGAGTGCATAATTCTATTAACACC DNA 2: GGTGTTAATAGAATTATGCACTCCTATTGGATACAT | 9.02 ln median PBM intensity, better of two orientations
16 | GTGCAC_site10234 (dsDNA) DNA 1: TAAAACAAAAAAAAGATGCACTATTTATTTTATTAT DNA 2: ATAATAAAATAAATAGTGCATCTTTTTTTTGTTTTA | 9.6 ln median PBM intensity, better of two orientations
17 | GTGCAC_site9721 (dsDNA) DNA 1: TATATATATATATATGTGCACTGGACATATTTTTAT DNA 2: ATAAAAATATGTCCAGTGCACATATATATATATATA | 9.71 ln median PBM intensity, better of two orientations
18 | GTGCAC_site9697 (dsDNA) DNA 1: GAACATTTATTGTGTGTGCACAATTCTTTTTTAACC DNA 2: GGTTAAAAAAGAATTGTGCACACACAATAAATGTTC | 8.57 ln median PBM intensity, better of two orientations
19 | GTGCAC_site10360 (dsDNA) DNA 1: TACCCTTGCATGTAGGTGCAATTTTTTTTTTTTTTT DNA 2: AAAAAAAAAAAAAAATTGCACCTACATGCAAGGGTA | 10 ln median PBM intensity, better of two orientations
20 | GTGCAC_site10335 (dsDNA) DNA 1: ATCAAGCGCAATGTGGTGCGTAAATTTTGTATTATA DNA 2: TATAATACAAAATTTACGCACCACATTGCGCTTGAT | 9.46 ln median PBM intensity, better of two orientations
21 | GTGCAC_site9975 (dsDNA) DNA 1: TGATTCACTATAGTAGTGCATATTATATATATATAT DNA 2: ATATATATATATAATATGCACTACTATAGTGAATCA | 9.26 ln median PBM intensity, better of two orientations
22 | GTGCAC_site10243 (dsDNA) DNA 1: ACATATTAAATATGAGTGCAATATATATATATATAA DNA 2: TTATATATATATATATTGCACTCATATTTAATATGT | 8.44 ln median PBM intensity, better of two orientations

Row | Binder | binding signal
23 | GTGCAC_site9445 (dsDNA) DNA 1: TCCTTTATTTTTAAAGTGCATATACATGTACATTAT DNA 2: ATAATGTACATGTATATGCACTTTAAAAATAAAGGA | 8.63 ln median PBM intensity, better of two orientations
24 | GTGCAC_site9783 (dsDNA) DNA 1: TAAATTTATATATAGGTGCGCAATTTGATAATAGTT DNA 2: AACTATTATCAAATTGCGCACCTATATATAAATTTA | 10 ln median PBM intensity, better of two orientations
25 | GTGCAC_site10625 (dsDNA) DNA 1: TTTTTATTTTCATATGTGCACTTATATATATATATA DNA 2: TATATATATATATAAGTGCACATATGAAAATAAAAA | 10.1 ln median PBM intensity, better of two orientations
26 | GTGCAC_site10175 (dsDNA) DNA 1: ACTTTTTTGAACAACGTGCACGTATTCATAACAAAA DNA 2: TTTTGTTATGAATACGTGCACGTTGTTCAAAAAAGT | 8.77 ln median PBM intensity, better of two orientations
27 | GTGCAC_site9748 (dsDNA) DNA 1: GTTAATCACCATGTGGTGCATATAAGGGCATATTAT DNA 2: ATAATATGCCCTTATATGCACCACATGGTGATTAAC | 10.1 ln median PBM intensity, better of two orientations
28 | GTGCAC_site10538 (dsDNA) DNA 1: TTATTATAATCATTAGTGCATATATTATTTTTATAT DNA 2: ATATAAAAATAATATATGCACTAATGATTATAATAA | 8.55 ln median PBM intensity, better of two orientations
29 | GTGCAC_site10768 (dsDNA) DNA 1: TATATATATCTTTTGGTGCATATTTCGAATATATGT DNA 2: ACATATATTCGAAATATGCACCAAAAGATATATATA | 10.2 ln median PBM intensity, better of two orientations
30 | GTGCAC_negctrl_site176 (dsDNA) DNA 1: TTTAATTAATAATAATATAAATTGTTCTTTTTTTTT DNA 2: AAAAAAAAAGAACAATTTATATTATTATTAATTAAA | 6.5 ln median PBM intensity, better of two orientations
31 | GTGCAC_site10226 (dsDNA) DNA 1: TTTTATGCGCAATAAGTGCATTTAAAATATATATAT DNA 2: ATATATATATTTTAAATGCACTTATTGCGCATAAAA | 8.59 ln median PBM intensity, better of two orientations
32 | GTGCAC_site9588 (dsDNA) DNA 1: AAAAAAAAAAATTCGGTGCAATGTAATTAATGTAAA DNA 2: TTTACATTAATTACATTGCACCGAATTTTTTTTTTT | 9.5 ln median PBM intensity, better of two orientations
33 | GTGCAC_site9453 (dsDNA) DNA 1: TGTTTTATTTTATTAGTGCATTTTTATTTATAATAG DNA 2: CTATTATAAATAAAAATGCACTAATAAAATAAAACA | 9.34 ln median PBM intensity, better of two orientations
34 | GTGCAC_site10484 (dsDNA) DNA 1: AAATTTGCTTTACCAGTGCAAAAAAAAAAAAAAAAA DNA 2: TTTTTTTTTTTTTTTTTGCACTGGTAAAGCAAATTT | 8.74 ln median PBM intensity, better of two orientations
35 | GTGCAC_site10065 (dsDNA) DNA 1: CTTAAAATATATTTAGTGCATATACTAATATATTAT DNA 2: ATAATATATTAGTATATGCACTAAATATATTTTAAG | 8.52 ln median PBM intensity, better of two orientations
36 | GTGCAC_site9653 (dsDNA) DNA 1: GTGTACTTTTAAATAGTGCATTTTACAATAATAAAA DNA 2: TTTTATTATTGTAAAATGCACTATTTAAAAGTACAC | 9.56 ln median PBM intensity, better of two orientations
37 | GTGCAC_site10395 (dsDNA) DNA 1: ACTTTAGAAATAGAGGTGCTATTTTTATTACCACAC DNA 2: GTGTGGTAATAAAAATAGCACCTCTATTTCTAAAGT | 8.7 ln median PBM intensity, better of two orientations
38 | GTGCAC_site9473 (dsDNA) DNA 1: TGTATTAACAAAAAGGTGCGGATATATATAAAAAAT DNA 2: ATTTTTTATATATATCCGCACCTTTTTGTTAATACA | 9.85 ln median PBM intensity, better of two orientations
39 | GTGCAC_site9963 (dsDNA) DNA 1: AATAATAAAAATATTGTGCACTTGTATATTTATTAT DNA 2: ATAATAAATATACAAGTGCACAATATTTTTATTATT | 9.87 ln median PBM intensity, better of two orientations
40 | GTGCAC_site10256 (dsDNA) DNA 1: AAGGAATGCATATAGGTGCTACACATAAAAATAAAA DNA 2: TTTTATTTTTATGTGTAGCACCTATATGCATTCCTT | 9.67 ln median PBM intensity, better of two orientations
41 | GTGCAC_site10711 (dsDNA) DNA 1: TAATAAAATATGTACGTGCACATAATTATACTAAAA DNA 2: TTTTAGTATAATTATGTGCACGTACATATTTTATTA | 8.95 ln median PBM intensity, better of two orientations
42 | GTGCAC_site9982 (dsDNA) DNA 1: ATTGTTATTTATTGTGTGCGCATTAATACATACATA DNA 2: TATGTATGTATTAATGCGCACACAATAAATAACAAT | 9.22 ln median PBM intensity, better of two orientations
43 | GTGCAC_site10359 (dsDNA) DNA 1: TACACTTGTAATTGCGTGCACGAAGGATATATATAT DNA 2: ATATATATATCCTTCGTGCACGCAATTACAAGTGTA | 8.81 ln median PBM intensity, better of two orientations
44 | GTGCAC_site9718 (dsDNA) DNA 1: TCTTTTTGCATGTGTGTGCGCACAAAATACACAAAA DNA 2: TTTTGTGTATTTTGTGCGCACACACATGCAAAAAGA | 9.06 ln median PBM intensity, better of two orientations

Reference: PMC11417369, “DNA sequence and chromatin differentiate sequence-specific transcription factor binding in the human malaria parasite Plasmodium falciparum”
